Results: US20090155176A1

Target: LFA-1 (lymphocyte function-associated antigen-1), purified heterodimer captured on ELISA plates (human) (UniProt P20701)
Assay: competition ELISA (LFA-1/ICAM-1-Ig)
Details: ligand

Chain of LFA-1 (lymphocyte function-associated antigen-1), purified heterodimer captured on ELISA plates (human) (P20701 26-1170, chain 1 of 2): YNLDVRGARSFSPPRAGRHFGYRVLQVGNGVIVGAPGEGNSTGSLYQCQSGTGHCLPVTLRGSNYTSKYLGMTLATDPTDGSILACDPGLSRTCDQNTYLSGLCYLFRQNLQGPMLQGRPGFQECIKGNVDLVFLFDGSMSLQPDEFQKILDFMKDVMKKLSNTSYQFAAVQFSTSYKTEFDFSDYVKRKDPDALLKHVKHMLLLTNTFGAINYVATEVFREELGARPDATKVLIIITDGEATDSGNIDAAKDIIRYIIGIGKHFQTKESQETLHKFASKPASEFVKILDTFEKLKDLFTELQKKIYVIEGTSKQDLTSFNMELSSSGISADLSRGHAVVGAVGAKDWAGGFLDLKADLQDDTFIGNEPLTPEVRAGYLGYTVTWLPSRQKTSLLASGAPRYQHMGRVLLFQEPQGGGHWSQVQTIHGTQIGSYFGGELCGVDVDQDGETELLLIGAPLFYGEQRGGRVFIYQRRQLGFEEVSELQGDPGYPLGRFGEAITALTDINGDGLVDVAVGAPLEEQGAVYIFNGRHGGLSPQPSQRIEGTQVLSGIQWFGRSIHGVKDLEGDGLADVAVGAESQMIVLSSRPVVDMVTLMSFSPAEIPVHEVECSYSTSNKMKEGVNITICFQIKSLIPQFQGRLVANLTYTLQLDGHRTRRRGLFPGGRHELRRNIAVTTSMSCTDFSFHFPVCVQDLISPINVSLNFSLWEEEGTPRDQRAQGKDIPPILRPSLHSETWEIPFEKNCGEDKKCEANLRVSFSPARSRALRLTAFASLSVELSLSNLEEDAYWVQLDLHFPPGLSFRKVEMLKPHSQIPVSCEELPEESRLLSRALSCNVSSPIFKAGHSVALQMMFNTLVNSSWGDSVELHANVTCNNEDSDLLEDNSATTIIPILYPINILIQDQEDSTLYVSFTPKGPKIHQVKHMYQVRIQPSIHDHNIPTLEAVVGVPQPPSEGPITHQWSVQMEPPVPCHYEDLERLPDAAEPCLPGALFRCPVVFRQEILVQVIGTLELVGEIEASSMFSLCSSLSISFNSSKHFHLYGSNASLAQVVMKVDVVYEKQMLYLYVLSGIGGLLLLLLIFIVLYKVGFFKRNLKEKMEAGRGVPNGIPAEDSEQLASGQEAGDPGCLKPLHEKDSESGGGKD
Chain of LFA-1 (lymphocyte function-associated antigen-1), purified heterodimer captured on ELISA plates (human) (P05107 23-769, chain 2 of 2, further chain): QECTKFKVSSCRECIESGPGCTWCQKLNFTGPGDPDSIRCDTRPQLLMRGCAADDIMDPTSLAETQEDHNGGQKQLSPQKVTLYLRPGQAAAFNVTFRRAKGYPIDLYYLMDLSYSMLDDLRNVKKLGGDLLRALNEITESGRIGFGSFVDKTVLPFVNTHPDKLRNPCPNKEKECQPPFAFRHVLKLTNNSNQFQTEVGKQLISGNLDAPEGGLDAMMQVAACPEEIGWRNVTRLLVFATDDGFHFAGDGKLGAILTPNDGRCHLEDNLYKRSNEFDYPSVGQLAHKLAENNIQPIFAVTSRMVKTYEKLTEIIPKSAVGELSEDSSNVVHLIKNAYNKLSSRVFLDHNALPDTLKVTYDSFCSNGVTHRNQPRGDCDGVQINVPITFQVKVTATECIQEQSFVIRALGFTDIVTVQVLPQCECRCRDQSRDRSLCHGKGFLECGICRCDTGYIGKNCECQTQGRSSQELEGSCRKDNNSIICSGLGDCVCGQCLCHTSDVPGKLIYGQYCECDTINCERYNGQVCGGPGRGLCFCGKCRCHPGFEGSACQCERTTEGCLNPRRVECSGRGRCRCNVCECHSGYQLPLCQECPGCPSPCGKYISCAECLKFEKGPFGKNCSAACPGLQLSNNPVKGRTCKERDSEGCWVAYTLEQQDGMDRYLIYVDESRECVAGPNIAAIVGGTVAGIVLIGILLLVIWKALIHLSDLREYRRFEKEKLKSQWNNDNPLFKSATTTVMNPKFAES
Chain of sICAM-1 (soluble ICAM-1) (P05362 28-480): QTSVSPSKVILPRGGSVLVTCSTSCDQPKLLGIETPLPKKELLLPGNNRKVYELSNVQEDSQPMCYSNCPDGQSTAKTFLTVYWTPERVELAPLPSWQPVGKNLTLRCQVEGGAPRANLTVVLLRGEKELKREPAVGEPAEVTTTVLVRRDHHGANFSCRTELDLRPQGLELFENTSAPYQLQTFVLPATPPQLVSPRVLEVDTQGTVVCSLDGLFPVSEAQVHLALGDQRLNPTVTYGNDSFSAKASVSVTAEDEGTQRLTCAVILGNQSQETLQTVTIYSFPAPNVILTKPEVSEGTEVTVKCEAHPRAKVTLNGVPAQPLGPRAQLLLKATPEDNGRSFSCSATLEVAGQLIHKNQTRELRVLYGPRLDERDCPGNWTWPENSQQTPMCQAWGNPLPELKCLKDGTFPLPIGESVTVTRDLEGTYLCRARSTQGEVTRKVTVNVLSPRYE

sICAM-1 (soluble ICAM-1) (from UniProt P05362 28-480)
IC50: 290 nM
